The values below come from patent US20180086810A1, “T CELL RECEPTOR FUSIONS AND CONJUGATES AND METHODS OF USE THEREOF” (ALTOR BIOSCIENCE CORPORATION, priority 2000, published 2018).

Assay [1] deals with 149 peptide/HLA-A2 complex on T2 cells (human). The assay can be described thus: cell-based or functional assay.
Assay [2] concerns the target 264 peptide/HLA-A2 complex on T2 cells (human). Briefly: cell-based or functional assay.

Turning to “264 scTCR-IL-2 fusion protein (from UniProt P60568 21-153)”, the conjugation between CTLL-2 cells and peptide-loaded T2 cells (flow cytometry, percent conjugates) came to 0.88% in assay [1] and 3.25% in assay [2].
